The target of assay [1] is T1, Histone 2A citrulline-containing peptide 4 (human, also: biotin label).
T1 peptide: QFPVG[Cit]VHRLLR
As to the kind of experiment: peptide ELISA, 0.4 ug/well. The method, then: (§1) Biotin and citrulline-containing peptides derived from histone 2A were immobilized on NEUTRAVIDIN®-coated 96-well ELISA plates (0.3 μg/well). CFC-1 and CFC-0 were coated at the same concentration and served as positive and negative controls respectively for specific anti-citrulline reactivity and as coating controls. Non-coated wells were used to test for aspecific binding of the antibodies. […] Detection of bound anti-citrulline antibodies was performed by incubating the wells with rabbit-anti-human-HRP (1:2000) for one hour at RT followed by incubation with TMB substrate. The resulting OD (y-axis) is a measure for antibody binding.
(§2) Ninety-six-well ELISA plates were coated with NEUTRAVIDIN® (0.1 μg/well) by overnight incubation at 4° C. Wells were washed five times with PBS-TWEEN®-20 (PBS-T) and blocked by a one-hour incubation with PBS-T+1% Bovine serum albumin (BSA) at room temperature (RT). After five more washes with PBS-T, wells were incubated for one hour at RT with histone-derived citrulline and biotin-containing peptides (0.3 μg/well). […] Wells were washed five times with PBS-T and incubated with rabbit-anti-human-HRP (1:2000) for one hour at RT followed by five washes with PBS-T and three wash steps with PBS. Wells were incubated for five minutes with TMB substrate before stopping the reaction with 2 M H₂SO₄. Optical density was measured by 450 nm and is a measure for the affinity of the antibodies used.
In general terms: ELISA stands for enzyme-linked immunosorbent assay.

Assay [2] concerns the target T2, Histone 2A citrulline-containing peptide 5 (human, also: biotin label).
T2 peptide: VGRVH[Cit]LLRKGN
Put plainly: peptide ELISA, 0.4 ug/well. The method, then:
as §1, §2

The target in assay [3] is T3, Histone 2A citrulline-containing peptide 6 (human, also: biotin label).
T3 peptide: VHRLL[Cit]KGNYSE
As to the kind of experiment: peptide ELISA, 0.4 ug/well. The procedure: as §1, §2

For assay [4], the target named is T4, Histone 2A citrulline-containing peptide 7 (human, also: biotin label).
T4 peptide: GNYSE[Cit]VGAGAP
As to the kind of experiment: peptide ELISA, 0.4 ug/well. The procedure:
as §1, §2

In assay [5] the target is T5, Histone 2A citrulline-containing peptide 8 (human, also: biotin label).
T5 peptide: AGNAA[Cit]DNKKTR
As to the kind of experiment: peptide ELISA, 0.4 ug/well. The procedure:
as §1, §2

Assay [6] has as its target T6, Histone 2A citrulline-containing peptide 9 (human, also: biotin label).
T6 peptide: DNKKT[Cit]IIPRHL
As to the kind of experiment: peptide ELISA, 0.4 ug/well. The procedure: as §1, §2

Assay [7] has as its target T7, Histone 2A citrulline-containing peptide 10 (human, also: biotin label).
T7 peptide: TRIIP[Cit]HLQLAI
As to the kind of experiment: peptide ELISA, 0.4 ug/well. The procedure:
as §1, §2

Assay [8] addresses T8, Histone 2A citrulline-containing peptide 11 (human, also: biotin label).
T8 peptide: LQLAI[Cit]NDEELN
Put plainly: peptide ELISA, 0.4 ug/well. The method, then:
as §1, §2

Assay [9] concerns the target T9, Histone 2A citrulline-containing peptide 12 (human, also: biotin label).
T9 peptide: NKLLG[Cit]VTIAQG
As to the kind of experiment: peptide ELISA, 0.4 ug/well. The procedure:
as §1, §2

In the next assay the target is T10, CFC-1.
T10 construct: Positive control for anti-citrulline reactivity; also called cfc1 XG
Put plainly: peptide ELISA, 0.00064 ug/well. The method, then: as §1, §2

Assay [10] concerns the target T11, Histone 2A citrulline-containing peptide 1 (human, also: biotin label).
T11 construct: also called AAASGXGKQGGK
T11 peptide: AAASG[Cit]GKQGGK
Put plainly: peptide ELISA, 0.00064 ug/well. The method, then: as §1, §2

For assay [11], the target named is T12, Histone 2A citrulline-containing peptide 2 (human, also: biotin label).
T12 peptide: AKAKS[Cit]SSRAGL
As to the kind of experiment: peptide ELISA, 0.00064 ug/well. The procedure: as §1, §2

Assay [12] has as its target T1, Histone 2A citrulline-containing …. Put plainly: peptide ELISA, 0.00064 ug/well. The procedure: as §1, §2
Assay [13] addresses T2, Histone 2A citrulline-containing …. As to the kind of experiment: peptide ELISA, 0.00064 ug/well. The procedure:
as §1, §2

Assay [14] has as its target T8, Histone 2A citrulline-containing …. As to the kind of experiment: peptide ELISA, 0.00064 ug/well. The procedure: as §1, §2

Non-standard residues stand in square brackets, D forms with d. No end group written: not given here. Cit = NC(=O)NCCC[C@H](N)C(=O)O

B1: RhmAb2.102 (antibody, human IgG1, lambda)
heavy: not shown
light: QSVLTQPPSMSAAPGQKVTISCSGSSSNIGNNYVSWYQQVPGTAPKLLIYDDNKRPSGIPGRFSGSKSATSATLGITGLQAGDEADYYCGSWDDNLSVVLFGGGTKLTVLGQPKAAPSVTLFPPSSEELQANKATLVCLISDFYPGAVTVAWKADSSPVKAGVETTTPSKQSNNKYAASSYLSLTPEQWKSHRSYSCQVTHEGSTVEKTVAPTECS
notes: Human IgG1 lambda; also called Rhm2.102
Regarding B1, the OD stood at 0.564 OD in assay [1]; 0.082 OD in assay [2]; 0.333 OD in assay [3]; 0.064 OD in [4]; 0.061 OD in assay [5]; 0.057 OD in [6]. For the same molecule, the OD turned out to be 0.051 OD in assay [7]; 0.064 OD in assay [8]; 0.061 OD in assay [9]; 0.621 OD with CFC-1; 0.16 OD in assay [10]; 0.055 OD in assay [11]. Also, the OD in assay [12] worked out at 0.063 OD; in [13], 0.067 OD; in [14] it was 0.06 OD.
